Assay results: paper PMC10840093
Like-named read-outs stand apart in the source and are kept apart here.

Measured: degradation_or_half_life

LSD1: LSD1-3KR (K424, K432, K481)
decreases: ubiquitination at K424 | ubiquitination at K432 | ubiquitination at K481
